The nanobody polyreactivity screen of Harvey et al. (2022)

Assay: yeast display, Sf9 membrane polyspecificity reagent, FACS + sequencing; frameworks hold sequencing errors
Method in brief: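 After 36–48 hours of galactose induction, yeast (Saccharomyces cerevisiae BJ5465) displaying a synthetic nanobody library were stained at 4 °C for 1 hour with 10% biotinylated, detergent-solubilized Sf9 membrane reagent. Streptavidin microbeads enriched the stained cells before FACS sorting into low and high (top ~1%) gates on anti-HA and streptavidin fluorescence. Each clone's polyreactivity label reflects its gate of origin.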

Sequence | polyreactivity (PSR sort gate)
QVQLVESGGGLVQAGGSLRLSCAASGSIFRHYTMGWYRQAPGIERELVAVISSGGNTNYADSVKGRFTISRDNAKNTVYLQMNSLKPEDTAVDDCAARSHRYYSRVNYWGQGTQVTVSS | high polyreactivity
QVQLVESGGGLVQAGCSLRLSCAASGFIILNYTMGLYRQAPGKERELVAAISNGSDRTYYADSVKGRFTISRDNAKNTVYLQMISLKTEDTAVYYCAKDRDFSSPPTESGFDYWGQGTQVNVSS | low polyreactivity
QVQLVVSGGGLVQGGGSLRLSWAASGFILALNAMGWYIQAPGKEREFVADISWSGDSTYYADSVKGRFTISRDNAKNTFYLQMNSLKPEDTAVYYCAADPYYNWGYYYWGQGTQVTVSS | low polyreactivity
QVQLVESGGGLVQAGGSLRLSCAASGGINGTYTMGWYRQAPGKEREMGAAISKRGGNTYYADSVKGRFTISRDNAKNTVYLQMNSLKPEDTAVYYCAKRVSGSPPTAGSLSDSWGQGTQVTVSS | high polyreactivity
QVQLEESAGGLVQAGGSLRLSCAASGIIFSGNAMGWYRQATGKERELVAAITLSGGSTYYADSVKGRFTISRDNAKNTVYLQMNSLKPEDTAVYYCNAVYDTIYSLRDIDTEYGSWGQGTQVTVSS | low polyreactivity
QVQLVESGGGLVQAGGSLRLSCAASGRIFSPYAMGWYRQAPGKERELVAAISGRGGRTYYADSVKGRFTISRDNAKNTVYLQMNSLKPEDTAVYYCNRVVSGYPGSDYWGQGTQVTVSS | high polyreactivity
QVQLVESGGGLVQAGGSLRLSCAASGSTFKSYAKGWYRQAPGKEREFVAAIRGNGARTYYADSVKGRITISRDNAKNTVYFQMNSLKPEDTAVYYCNAVRYSFSDSSVDYWGQGTQVTVSS | high polyreactivity
QVQLEDSGGGLVQAGGSLRLSCAASGLIFLDYAMGCYRQAPGKERELVAAISRSGGRTYYADSVKGRFTISRDNAKNTVYLQMNIVKPEDTAVYYCNAYQSARKKATASTYDSWGQCTQVTVSS | high polyreactivity
QVQLVESGGGLVQAGGSLRLSCAASGSTFAKYAMGWYRQAPGKERELVAAIRSGGSTNYADSVKGRFTISRDNAKITVYLQMYSLKPEDTAVYYCAAKRDVSRPVYFRNDYWGQGTQVTVSS | low polyreactivity
QVQLVESGGGLVQAGGSLRLSCAASGRTFWSYAMGWYRQAPGKERELVAAINSSGDSTYYADSVKGRFTISRDNAKNTVYLQMNSLKPEDTAVYYCAADGGLLAGSDATVRMDYWGQGTQVTVSS | low polyreactivity
QVQLVESGGGLVQAGGSLRLSCAASGFTFYKYAMGWYRQAPGKERELVAAINWSGGSTYYADSVKGRFTISRDNAKNTVYLQMNSLKPEDTAVYYCAAERGTTYAYDYWGQGTQVTVSS | high polyreactivity
QVQLVESGGGLVQAGGSLRLSCAASGITFFTYAMGWYRQAPGKERELVATISRSGGRTYYADSVKGRFTISRDNAKNTVYLQMNSLKPEDTAVYYCAARTYYWGALIVSYDYWGQGTQVTVSS | low polyreactivity
QVQLVESGGGLVQAGGSLRLSCAASGFIIGGYAMGWYRQAPGKERELVASITSGGRTYYADSVKGRFSISRDNAKNTVFLQMNSLKPEDTAVYDCAARQQTYYYKIYYWGQGSQVTVSS | high polyreactivity
QVQLEESGGGLVQAGGSLRLSCAASGRNFTYNTMGWYRQAPGKERELVAAITSGGSTYYADSVKGRFTSSRDNAKNTVYLQMNSLKPEDTAVYYCAKRSWAYTDYFVSEYYWGQGTQVTVSS | high polyreactivity
QVQLVESGVGLVQAGGSLRLSCAASGFLIRYYAMGWYRQAPGKERELVASIDWSGGNTYYADSVKGRFTSSRDKAKITVYFQMNSLKPEDTAVYSCNRRGMDWGQGTQVNVSS | low polyreactivity
QVQLVESGGGLVQAGGSLRLSCAASGSIFGYYAMGWYRQAPGKERELVAAISYGGGRTYYADSVKGRFTISRDNAKNTVYLQMNSLKPEDTAVYYCAADVQSRYVGEGDYWGQGTQVTVSS | high polyreactivity
QVQLVESGGGLVQAGGSLRLSCAASGSTFWFNAMGWYRQAPGKERELVAAITYRGASTNYADSVKGRFTISRDNAKNTVYLQMNSLKPEDTAVYYCATRPTWRPVPDSDVSTYGYWGQGTQVTVSS | low polyreactivity
QVQLVESGGGIVQAGGSLRLSCAASGGTFIRYAMGWYRQAPGKEREFVAAISASGGSTYYADSVKGRFTISRDNAKNTVYLQMNSLKPEDTAVYYCAARRTNLPVKFYYWGQGTQVTVSS | high polyreactivity
QVQLVESGGGLVQAAGSLRLICAASGSTFPANAMGWYRQEPGKERELVASITKSGGDTYYADSVKGRFTISRDNAKNSVYVQMNSLKPEDTAVYDCAKDYVNQYGVYKVWANNYNYWGQGTQVTVSS | low polyreactivity
QVQIVESGPGLVQAGASLSLSCAASGSIFRPYAMGWYIQAPGKDRELVAAITWSGGRTYYADSVKGRFTISRDNAKNTVYLKMNSLKREDTAVYYCAADDSEGFDYWGQGNQVTVSS | high polyreactivity
QLKHEESRGGLVQAGGSLRLSCAASGSTIYTYVMGWYRQAPGNERELVAAISWSGSSTYYADSVKGRFTISRDNAKNTVYLHMNSLKPEDTAVYYCNADPSQHTSAGYSSYEYYYWGQGTQVTVSS | low polyreactivity
QDQLVESGGGLVQAGGSLRLSCAASGLIFLYAMGWYRQAPGKERELVAAISNGGSTYYADSVKGRFTISRDNAKNTVYLQMNSLKPEDTAVYYCAAKGVRRRYRPDMYYWGQGTQVTVSS | high polyreactivity

Sequence | polyreactivity (PSR sort gate)
QVQQQESGGGMEQARGSLRLSCAASGYISWADYMGCYRQAPGKERELVAVIGYGSTTYYADSVKGRFTMSRDNAKNTAYLQMNSLKPEDTAVYYCAVGWYRDTAYKYWGQGTQVTVSS | low polyreactivity
HVQLVESGGGLVQAGVSLRLSCAASGSIFSPYAMGGFRPAPGKERELLAAISSSGGSTYYADSVKRRFTISRDNAKNTVYLQMNSLKPEDTAVYYCAADSATGIFDRLNYWGQGTQVTVSS | high polyreactivity
QVQLVESGGGLVQAGGSLRLICAASGSIFVIYAMGWYRQAPGKERELVAAITSGGNTTYADSVKGRFTISRDNAKNTVSLQMNSLKPEDTAVYYCSADYPWEYDYWGQGTQVTVSS | low polyreactivity
QVQLVESGGGLVQAGGSLRLSCAASGFIFHLYAMGWYRQAPGKERELVAVISGGGSTYYADSVKGRFTISRDNAKNTVYLQMNSLKPEDTAVYYCNVGRYYRYATGGDYWGQGTQVTVSS | high polyreactivity
QVQDVESGGGLVQAGGSLRLSCAASGRTIDPNAMGWYRQAPGKERELVAAITRTGVRTYYADSVKGRFTISRDNAKNTVYLQMNSLKPEDTAVYYCNRYGARSNDYWGQATQVTVSS | low polyreactivity
QVQLVESGVGLVQAGGSLRLSCAASGSILDYYVMGWYRQAPGKDRELVAAIRGGGSTYYADSVKGRFTFSRDNEKNTVYLQMNSLKPEDTAVYYCAKDSQTARDFDYSGQGTQVTVSS | low polyreactivity
QVQLVESGVGLVQAGGSLRLSCAASGRIFIDYAMGWYRQAPGKERELVATISESGGSTYYADSVKGRFTISRDNAKNTVYLQMNSLKPEDTAVYYCAVDDRYGTVYFYTKFDYWGQGTQVTVSS | low polyreactivity
QVQLVESGGGLVQAGGSLRLSCAASGGIFYRYAMGWYRQAPGKERELVAAITRSGANTYYADSVKGRFTISRDNAKNTVYLLMNSLKPEDTAVYYCNARSYLYYSGQYDYWGQGTQVTVSS | high polyreactivity
QVQLVESGGGLVPAGGSLLLSCAASGLTFYVYAMGWYRQAPGKERELVAAISSGGRTYYADSVKGRFTISRDNAKNTVYLQMNSLKPEDTAVYYCAAFRHRNYGYWGQGTQVTVSS | high polyreactivity
QVQLVESGGGLVQAGGSLRLSCAASGSIFHNYDMGCYRQAPGKERELVADISRGGDTNYADSVKGRFTISRDNAKNTVYLQMNSLKPEDTAVYYCSADSADPTEYDYWGQGTQVTVSS | low polyreactivity
QVQLVASGGGLVQAGGSLRFSCAASGRPLSYYAMGWYREAPGKERELVAAISRRGGSTYYADSVKGRFTISRDNAQNTVYIQMNSLKPKDTAVYYCAAETFDYADYIANGSGEYDYWGQGTQVTVSS | high polyreactivity
QVQLVESGGGLVQAGGSLRLSCAASGSIFGNYVMGWYRPAPGKERELVAAISWSGGTNYADSVKGRFTISRDNAKNTVYLQMNSLKPEDTAVYYCAALSVWSYYTYYYWGQGTQVTVSS | high polyreactivity
QVQLVESGGGLVQAGGSLRLSCAASGNTFYKYAMGWYRQAPGKERELVADISWSGGSTYYADSVKGRFTISRDNAKNTVYLQMNSLKREDTAVYYCNADTPVWDGHAYPVDYWGQGTQVTVSS | low polyreactivity
QVQLVESGGGLVQAGGSLRLSCAASGRIFLINAMGWYRQAPGKERELVAAITVSGTRTYYADSVKGRFTISRDNAKNNVYLQMNSLKPEDTAVYYCAAKLQYRWTCGYYYWGQGTQVTVSS | high polyreactivity
QVQLVESGGGLVQAGGSLRLSCAASGLTFYQYTMGWYRQAPGKERELVAAISRRGGSTYYADSVKGRFTISRDNAKNTVYLQMNSLKPEDTAVYYCAARALRYSRDFDYWGQGTQVTVSS | high polyreactivity
QVQLVESGGGLVQAGGSLRLSCAASGFTFYYNAMGWYRQAPGKERELGASITRSGGRTYYADSVKGRFTISRDYAKNTVYLQMNSLKPEDTAVYYCARRYPGGYYWGQGTHVTVSS | high polyreactivity
QVQLVESGGGLVQAGGSLRLSCAASGLTFLFYAMGWYRHATGKERELVASIRWSDGRTYYADSVKGRFTISRDNAKNTVYLQMNSLKPEDTAVYYCAVVPAYVYLNREYYWGQGTQVTVSS | high polyreactivity
QVQLVESGGGLVQAGGSLRLSCAASGFISDWYAMGWFRQAPGKERELVATIDWLGGSTYAHSVKGRFTISRDNAKNTVYLQMNSLKPEDTAVYYCAADSYFIAWYGAPYAYDYWGQGTQVTVSS | low polyreactivity
QVQLVESVGGLVQAGGSLRLSCAASGSTIDGYAMGWYRQAPGKEREFVAAISFSSASTYYADSVKGRFTISRDNAKNTVYLQMNSLKPEDTAVYYCNADFFDSGGSIEYDSWGQGTQVTVSS | low polyreactivity
QVQLVESGGGLVQAGGSLRLSCAASGSTFDYYAMGWYRQAPGKERELVATISYSDGTTYYADSVKGRFTISRDNAKNTVYLQMNSLKPEDTAVYYCAADTYVYEEQNVWRMDYWGQGTQVTVSS | low polyreactivity
QVKLEESGGCLVQAGGSLRLSCAASGFTFEENAMGWYRQAPGKERELVAAINWSGGNTYYADSVKGRFTISRDNAKNTVYLQMNSLKPEDTAVYYCAADSPRYYYWVGPYYGYDYWGQGTQVTVSS | high polyreactivity
